# Residue numbers refer to the chain shown, from its start.
# T1: huCD98hc ECD Avi-His (human, UniProt P08195 105-529)
# T1 construct: biotinylated on the Avi tag where captured on streptavidin; also called Human CD98-AVI-His; Human CD98hc-AVI-His
# T1 sequence: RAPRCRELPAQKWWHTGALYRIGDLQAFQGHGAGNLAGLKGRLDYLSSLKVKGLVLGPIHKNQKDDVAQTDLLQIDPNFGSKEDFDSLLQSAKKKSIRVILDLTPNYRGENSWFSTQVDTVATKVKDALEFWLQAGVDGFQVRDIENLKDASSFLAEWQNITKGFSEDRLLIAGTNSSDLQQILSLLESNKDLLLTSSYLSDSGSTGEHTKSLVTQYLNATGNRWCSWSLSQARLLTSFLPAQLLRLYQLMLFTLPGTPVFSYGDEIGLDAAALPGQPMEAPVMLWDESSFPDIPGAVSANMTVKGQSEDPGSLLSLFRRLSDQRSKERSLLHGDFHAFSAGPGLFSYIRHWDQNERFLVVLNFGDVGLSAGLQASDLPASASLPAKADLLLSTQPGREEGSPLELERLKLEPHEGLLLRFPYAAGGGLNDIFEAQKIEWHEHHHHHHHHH
# T2: muCD98hc ECD Avi-His (mouse, UniProt P10852 100-526)
# T2 construct: biotinylated on the Avi tag where captured on streptavidin; also called Mouse CD98-AVI-His; Mouse CD98hc-AVI-His
# T2 sequence: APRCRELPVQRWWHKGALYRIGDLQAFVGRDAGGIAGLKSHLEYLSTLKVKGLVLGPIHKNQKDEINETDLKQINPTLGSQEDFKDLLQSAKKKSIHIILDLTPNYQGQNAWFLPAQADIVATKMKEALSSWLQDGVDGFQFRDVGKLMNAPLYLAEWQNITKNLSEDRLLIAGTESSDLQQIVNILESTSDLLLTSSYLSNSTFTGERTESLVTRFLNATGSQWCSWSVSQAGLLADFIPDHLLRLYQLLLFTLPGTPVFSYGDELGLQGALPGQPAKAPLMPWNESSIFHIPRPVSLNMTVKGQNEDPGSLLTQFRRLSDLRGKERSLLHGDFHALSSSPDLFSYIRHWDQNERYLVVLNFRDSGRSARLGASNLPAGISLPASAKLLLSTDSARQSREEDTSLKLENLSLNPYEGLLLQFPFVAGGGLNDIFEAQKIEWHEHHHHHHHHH
# T3: Cyno CD98hc ECD Avi-His (cynomolgus macaque, UniProt P08195 105-529 (human entry))
# T3 construct: biotinylated on the Avi tag where captured on streptavidin; also called Cyno CD98-AVI-His; Cyno CD98hc-AVI-His
# T3 chain: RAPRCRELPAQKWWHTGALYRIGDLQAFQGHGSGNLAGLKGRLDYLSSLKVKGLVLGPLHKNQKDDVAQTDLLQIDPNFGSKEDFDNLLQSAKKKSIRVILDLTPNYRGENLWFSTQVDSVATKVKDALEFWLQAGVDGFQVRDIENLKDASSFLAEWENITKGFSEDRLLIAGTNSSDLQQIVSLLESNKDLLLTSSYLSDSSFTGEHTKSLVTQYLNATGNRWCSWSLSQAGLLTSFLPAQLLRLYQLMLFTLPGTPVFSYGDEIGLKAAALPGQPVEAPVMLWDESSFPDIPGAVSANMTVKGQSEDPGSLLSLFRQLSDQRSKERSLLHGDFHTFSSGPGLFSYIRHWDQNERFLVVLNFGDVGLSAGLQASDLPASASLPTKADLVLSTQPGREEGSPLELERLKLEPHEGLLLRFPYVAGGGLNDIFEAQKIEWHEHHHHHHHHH
# B1: CD98HC.04.022 (antibody, V domains shown)
# VH: EVQLQQSGAELVKPGASVKLSCTASGFNIKDTFMHWMKQRPEQGLEWIGRIDPANANTRYDPKFQGKATITTDTSSNTAYLQLSSLTSEDTAVYYCARDVYYDVWGAGTTVTVSS
# VL: DILMTQSPSSMSVSLGDTVTITCHASQGISSNIGWLQQKPGRSFKGLIYHGSNLEDGVPSRFTGSGSGTDYSLTISGLESEDFADYYCVQYAQFPRTFGGGTKLEIQ
# notes: hybridoma IgG
# B2: CD98HC.04.045 (antibody, V domains shown)
# VH: QIQLVQSGPELKKPGETVKISCKASGYSITNFGMNWVKQAPGKGLKWMGWVNTYTGEPTYADDFKGRFAFSLETSASTASLQINNLKNEDTATYFCTRSVITYTMDYWGQGTSVTVSS
# VL: DIQLTQSPSSLSASLGERVSLTCRASQEISGYLSWLQQKPDGTIKRLIYAASTLDSGVPKRFSGSRSGSDYSLTISSLESEDFADYYCLQYASYPRTFGGGTKVEIK
# notes: hybridoma IgG
# B3: CD98HC.03.010 (antibody, V domains shown)
# VH: EVQLQQSGTELVKPGASVKLSCTASGLDIKDTYLHWVKQRPEQGLEWIGKIDPANGNTKYNPKFQGKATITADTSSNTAYLQLSSLTSEDTAVHYCTTPYYSGSSYGDYWGQGTTLTVSS
# VL: QIVLTQSPAIMSASPGEKVTLTCSASSSVSSSYLYWYQQKPGSSPKLWIYSTSNLASGVPARFSGSGSGTSYSLTISSMEAEDAASYFCHQWSRYPLTFGAGTKLELK
# notes: hybridoma IgG
# B4: CD98HC.04.064 (antibody, V domains shown)
# VH: QVQLQQPGAELVRPGASVKLSCKASGYTFTSYWMNWVRQRPGQGLEWIGLIDPSDSETHYNQMFKDRATLTVDKSSSTAYMQLSSLTSADPAVYYCARASYGKGYFDYWGQGTTLTVSS
# VL: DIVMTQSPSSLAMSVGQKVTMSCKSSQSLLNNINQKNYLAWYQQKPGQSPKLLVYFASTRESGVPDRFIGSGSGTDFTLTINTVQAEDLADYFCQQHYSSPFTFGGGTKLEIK
# notes: hybridoma IgG
# B5: CD98HC.04.018 (antibody, V domains shown)
# VH: QIQLVQSGPELKKPGETVKISCKASGYTFRNYGMNWVKQAPGKGLKWMGWINTYTGEPTYAEDFKGRFAFSLETSASTAYLQINKLKNEDEATYFCARGEAHWYFDVWGAGTTVTVSS
# VL: QIVLTQSPAIMSASLGERVTMTCTASSSVSSSYLYWYQQKPGSSPKLWIYSIFNLASGVPARFSGSGSGTSYSLTISSMEAEDAATYYCHQYHRSPPTFGGGTKLEIK
# notes: hybridoma IgG
# B6: CD98HC.04.046 (antibody, V domains shown)
# VH: QIQLVQSGPVLKKPGETVKISCKASGYTFTNFGMNWVKQAPGKGLKWMGWIDTYTREPTYVDDFKGRFAFSLETSVTTAYLQINDLKNEDSATYFCARGESHWYFDVWGAGTTVTVSS
# VL: B5 VL with T24I, A25V, I52T, F53S, N54I, A61G
# notes: hybridoma IgG
# B7: CD98HC.04.013 (antibody, V domains shown)
# VH: EVQLVESGGDLGMPGGSLKLSCAASGFALSGYDMSWVRQTPDKRLEWVAYLSSGGGSTYYPYTVKGRFTISRDNAQNTLYLQMSSLKSEDTAIYYCARHSEVRPWFGYWGQGTLVTVSA
# VL: DIVMSQSPSSLAVSVGEKVTLTCKSSQSLLYSGNQKNYLAWYQQNPGQSPKLLIYWASTRESGVPDRFTGSGSGTDFTLTISSVKAEDLAVYYCQQYYTYPPTFGAGTKLGLK
# notes: hybridoma IgG
# B8: CD98HC.04.062 (antibody, V domains shown)
# VH: EVQLVESGGDLVKPGGSLKLSCTASRFAFSTYDMSWVRQTPEKRLEWVAYISSGGGSTYFPDTVKGRFTISRDNAKNTLYLQMSSLKSEDTAMYYCARQDGHYPWFPYWGQGTLVTVSA
# VL: B7 VL with L21M, T22S, N37T, N45K, L52P, V64I, T99S, G111E
# notes: hybridoma IgG
# B9: CD98HC.04.063 (antibody, V domains shown)
# VH: EVKLEESGGGLVQPGGSMILSCVASGFTFSNSWMNWVRQSPEKGLEWVAEIRLRSNNYATHYAESVKGRFTISRDDSKSTVYLQMNNLRAEDTGIYYCSRGDPGAYWGQGTLVTVSA
# VL: DIQMTQSSSYLSVSLGNRVTITCKASDHIKNWLAWFQQKPGNAPRLLISGATILETGVPSRFSGSGSGKDYTLSITSLQTEDVATYYCQQYWSTPYTFGGGTKLEIK
# notes: hybridoma IgG
# B10: CD98HC.04.012 (antibody, V domains shown)
# VH: QVQLQQSGADLVRPGDSVKISCKGSGYTFTDNTLHWVKQSHAKSLEWIGVISPYYGDASYNQKFKGKATMTVDKSSSTAYMELARLTSEDSAIYYCARVGGRLRLGYYFDHWGQGTTLTVSS
# VL: NIMMTQSPSSLAVSAGEKVTMNCKSSQSVLSSSNQKNYLAWYQQKPGQSPKLLIYWASTRESGVPARFTGSGSGTDFSLTITSVQAEDLAVYYCLQYLSSYTFGGGTKLEIK
# notes: hybridoma IgG
# B11: CD98HC.04.058 (antibody, V domains shown)
# VH: QVQLQQSGAELVRPGVSVKISCKASGYTFTDHTMHWVKQSHARSLEWIGVISTYFGDASYNPKFKGKATMTVDKSSNTAYMELARLTSEDSAIYYCARVGGRLRLGYYFDYWGQGTTLTVSS
# VL: B10 VL with S28T, S31Y, A66D, S78T, T82S, A86V, L95H
# notes: hybridoma IgG
# B12: CD98HC.03.004 (antibody, V domains shown)
# VH: DVQLQESGPGLVKPSQSLSLTCTVTGYSITNNYAWNWIRRFPGNKLEWMAYISYSGYTSYNPSLKSRISITRDTSKNQFFLQLNSVTTEDTATYYCTGYFYYYGGGSFDYWGQGTTLTVSS
# VL: QAVVTQESALTTSPGETVTLTCRSSTGAVTTSNFANWVQEKPDHLFTGLIRGSNNRAPGVPARFSGSLIGDKAALTITGARTEDEAIYFCALWYSDHWVFGGGTKLTVL
# notes: hybridoma IgG
# Target: T4, Human TfR-AVI-His (control) (human, UniProt P02786 89-760)
# T4 construct: control protein; also called Avi-His-tagged human TfR; human transferrin receptor
# T4 sequence (P02786 89-760 limits assumed): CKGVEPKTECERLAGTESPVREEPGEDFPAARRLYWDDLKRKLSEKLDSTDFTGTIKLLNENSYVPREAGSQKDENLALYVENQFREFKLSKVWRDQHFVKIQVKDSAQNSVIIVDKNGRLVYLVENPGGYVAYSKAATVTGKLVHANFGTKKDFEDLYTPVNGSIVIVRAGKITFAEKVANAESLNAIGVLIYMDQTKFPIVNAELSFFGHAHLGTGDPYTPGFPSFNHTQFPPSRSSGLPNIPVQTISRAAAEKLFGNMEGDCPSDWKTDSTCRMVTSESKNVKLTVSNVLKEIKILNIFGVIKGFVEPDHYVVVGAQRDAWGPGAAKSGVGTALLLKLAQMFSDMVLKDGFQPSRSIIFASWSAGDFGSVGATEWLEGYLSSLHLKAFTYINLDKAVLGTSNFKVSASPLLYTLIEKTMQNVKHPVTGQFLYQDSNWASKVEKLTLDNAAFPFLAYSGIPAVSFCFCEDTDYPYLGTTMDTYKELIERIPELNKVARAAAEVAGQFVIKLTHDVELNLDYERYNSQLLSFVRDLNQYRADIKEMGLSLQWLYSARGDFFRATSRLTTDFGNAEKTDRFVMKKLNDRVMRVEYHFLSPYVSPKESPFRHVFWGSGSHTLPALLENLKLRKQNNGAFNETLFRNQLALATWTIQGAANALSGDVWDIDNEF
# Test: ELISA, hybridoma supernatant
# Experimental: (§1) Briefly, 96-well polystyrene plates were coated with 5 μg/ml of streptavidin (Thermo Fisher, Cat #PI21125) in coating buffer (0.05M carbonate buffer, pH 9.6, Sigma, Cat #C3041) overnight at 4° C. Coated plates were then blocked with ELISA diluent (PBS+0.5% BSA+0.05% Tween20) for one hour. Blocking buffer was removed and human, cyno, or mouse Avi-His-tagged CD98hc and Avi-His-tagged human TfR polypeptides were added at 1 μg/ml in ELISA diluent and captured for 1 hour at room temperature. After washing three times with 300 μl of PBST (PBS+0.05% Tween20, Thermo 28352), the hybridoma cell culture supernatants or 1 μg/ml of commercially available purified mouse anti-human CD98hc monoclonal antibody (Sigma Aldrich, Cat #SAB 4700503) and rat anti-mouse CD98hc antibody (Bio-Rad Laboratories, Hercules, CA, Cat #MCA2684) were added (50 μl/well) to each well. After 30 minutes of incubation at room temperature, the plates were washed three times with 300 μl of PBST. […] After a final set of washes (3×300 μl in PBST), 50 μl/well of BioFx TMB substrate (Surmodics, Eden Praire, MN, Cat #TMBW-1000-01) was added to the wells. The reaction was then quenched after 5-10 mins with 50 μl/well of 2N sulfuric acid. The plates were read for absorbance at 450 nm on a SpectraMax M5 (Molecular Devices, Sunnyvale, CA) using SoftMax Pro software.
row,OD450,Binder
1,0.0533,B1
2,0.103,B2
3,0.0588,B3
4,0.0639,B4
5,0.0717,B5
6,0.0719,B6
7,0.0667,B7
8,0.0561,B8
9,0.0629,B9
10,0.074,B10
11,0.0976,B11
12,0.0905,B12

# Target: T1, huCD98hc ECD Avi-His
# Test: ELISA, hybridoma supernatant
# Experimental: as §1
row,OD450,Binder
1,1.36,B1
2,1.51,B2
3,1,B3
4,1.7,B4
5,1.64,B5
6,1.38,B6
7,1.17,B7
8,1.61,B8
9,1.66,B9
10,1.64,B10
11,1.34,B11
12,1.49,B12

# Target: T2, muCD98hc ECD Avi-His
# Test: ELISA, hybridoma supernatant
# Experimental: as §1
row,OD450,Binder
1,0.0554,B1
2,0.0764,B2
3,0.0625,B3
4,0.073,B4
5,0.079,B5
6,0.0817,B6
7,0.0717,B7
8,0.0607,B8
9,0.0738,B9
10,0.0786,B10
11,0.121,B11
12,0.0938,B12

# Target: T3, Cyno CD98hc ECD Avi-His
# Test: ELISA, hybridoma supernatant
# Experimental: as §1
row,OD450,Binder
1,1.89,B1
2,1.34,B2
3,1.77,B3
4,1.76,B4
5,1.97,B5
6,1.88,B6
7,2.04,B7
8,1.63,B8
9,1.91,B9
10,1.73,B10
11,1.73,B11
12,1.4,B12

# — patent US20250270341A1 (Alector, published 2025)
